From patent US9175313B2, “Three-dimensional structure of isoprene synthase and its use thereof for generating variants” (Danisco US Inc., priority 2009, dated 2015)
Changes are numbered by the printed parent chain. Numbers in names are those of the source.

Tests used:
[1] = kcat, KM and Ki determination, rate vs [DMAPP], fit to uncompetitive substrate inhibition; type: biochemical
Procedure: 10 uL of purified enzyme was incubated with DMAPP at concentrations ranging from 1.25 to 20 mM DMAPP in a buffer containing 50 mM Tris, 50 mM MgCl2 and 50 mM NaCl (pH=8) to a final volume of 100 uL for 15 min. at 30 C in gas tight 2 mL vials. Reactions were terminated with the addition of 100 uL of 250 mM EDTA, pH=8. Samples were analyzed by GC-MS to determine the concentration of isoprene in the headspace of the vials. Data were analyzed using Kaleidagraph and fit to following equation for uncompetitive substrate inhibition: rate/E=kcat*S/(KM+S*(1+S/Ki)). All kinetic assays were performed in triplicate.
Protein concentration was determined by measuring the absorbance of each protein solution at 280 nm on a Helwlett Pachard 8453 UV-Vis spectrophotometer and converting the absorbance to protein concentration using the extinction coefficient as determined on the Expasy website (Gasteiger E., Hoogland C., Gattiker A., Duvaud S., Wilkins M. R., Appel R. D., Bairoch A.; Protein Identification and Analysis Tools on the ExPASy Server; (In) John M. Walker (ed): The Proteomics Protocols Handbook, Humana Press (2005). pp. 571-607). The protein concentrations of isoprene synthase variants assayed for KM and kcat determination were verified by comparative gel electrophoresis of a dilution series of each protein (FIG. 61).

[2] = Small scale expression and yield of purified 6xHis-tagged IspS variants; settings: BL21(λDE3)pLysS, 100 mL cultures
Procedure: N-terminally 6×His-tagged wild type IspS, IspS-L494P, and IspS-T536F were expressed and purified from strains MD09-167, DW399, and DW363, respectively. The growth procedure is suitable for histidine tagged enzymes expressed in BL21(λDE3)pLysS cells. A 3 ml of overnight culture was prepared for each 100 mL of planned growth. The appropriate antibiotics ([…] kanamycin, […] chloramphenicol) were added to 3 ml of LB medium in a 10 ml glass tube and was inoculated with 1 colony from a fresh plate of cells or directly from glycerol frozen cell stock. Cultures were grown at 30° C. overnight with shaking at ˜220 rpm. Day cultures were prepared in 100 mL of LB medium with appropriate antibiotics for each culture. Each 100 mL day culture was inoculated with 50 μl of overnight culture and grown at 37° C. with shaking at ˜220 rpm until the OD600 reached ˜0.4-0.6. Day cultures were then induced with 400 μM IPTG and allowed to continue growing at 30° C. with shaking at 220 rpm for ˜5-6 hours. […] Following Harvest, cells were used directly or stored at −80° C. until ready to process. […]
To buffer exchange the protein into a buffer suitable for protein assays and storage, a PD-10 column (GE Healthcare) was equilibrated with 25 mL PD-10 buffer (50 mM HEPES, 0.05 M NaCl, pH 7.4). […] The eluate was then analyzed by absorbance at 280 nm and SDS-PAGE gel and the samples were stored at −80° C.

[3] = Isoprene synthase activity vs temperature (DMAPP assay, 25 to 80 C); type: biochemical; settings: FIG. 58
Procedure: The activity of wild type IspS and variants IspS-L494P and IspS-T536F was measured across a spectrum of temperatures. Individual DMAPP assays were performed at 5° C. intervals from 25° C. to 80° C. by incubating the vials in a pre-heated water bath.
The following reaction mixture was used for the DMAPP assay: 25 μL purified protein, 5 μL MgCl2 (1 M), 5 μL DMAPP (100 mM), and 65 μL 100 mM Tris pH 8, 100 mM NaCl for a total volume of 100 μL. The reaction is performed at the specified temperature for 15 minutes in a gas tight 1.8 mL GC tube. Reactions are terminated by the addition of 100 μL 500 mM EDTA (pH 8). The amount of isoprene produced was measured by GC/MS.
The analysis was performed using an Agilent 6890 GC/MS system interfaced with a CTC Analytics CombiPAL autosampler operating in headspace mode. An Agilent HP-5MS GC/MS column (30 m×0.25 mm; 0.25 μm film thickness) was used for separation of analytes. The sampler was set up to inject 500 μL of headspace gas. The GC/MS method utilized helium as the carrier gas at a flow of 1 ml/min. The injection port was held at 250° C. with a split ratio of 50:1. The oven temperature was held at 37° C. for the […] duration of the analysis. The Agilent 5793N mass selective detector was run in single ion monitoring (SIM) mode on m/z 67. The detector was switched off from 1.4 to 1.7 minutes to allow the elution of permanent gases.

B1: L494P: P. alba IspS variant L494P; pDW101, strain DW399, SEQ ID NO: 69 (protein)
chain: MEARRSANYEPNSWDYDYLLSSDTDESIEVYKDKAKKLEAEVRREINNEKAEFLTLLELIDNVQRLGLGYRFESDIRGALDRFVSSGGFDAVTKTSLHGTALSFRLLRQHGFEVSQEAFSGFKDQNGNFLENLKEDIKAILSLYEASFLALEGENILDEAKVFAISHLKELSEEKIGKELAEQVNHALELPLHRRTQRLEAVWSIEAYRKKEDANQVLLELAILDYNMIQSVYQRDLRETSRWWRRVGLATKLHFARDRLIESFYWAVGVAFEPQYSDCRNSVAKMFSFVTIIDDIYDVYGTLDELELFTDAVERWDVNAINDLPDYMKLCFLALYNTINEIAYDNLKDKGENILPYLTKAWADLCNAFLQEAKWLYNKSTPTFDDYFGNAWKSSSGPLQLVFAYFAVVQNIKKEEIENLQKYHDTISRPSHIFRLCNDLASASAEIARGETANSVSCYMRTKGISEELATESVMNLIDETWKKMNKEKLGGSPFAKPFVETAINLARQSHCTYHNGDAHTSPDELTRKRVLSVITEPILPFERENLYFQGLEHHHHHH
[1]; 1.25 to 20 mM DMAPP, 30 C
  KM compared to WT isoprene synthase, in words: less than the KM of the WT
  rate profile vs [DMAPP]: uncompetitive substrate inhibition by DMAPP
[1]; 1.25 to 20 mM DMAPP, 30 C, average of three trials ± one standard deviation
  Km: 3.6 ± 0.5 mM
[1]; 1.25 to 20 mM DMAPP, 30 C, average of three trials ± one standard deviation, in s^-1 (unit assumed)
  kcat: 2.1 ± 0.1
[1]; 1.25 to 20 mM DMAPP, 30 C, listed as β
  kcat compared to WT isoprene synthase, in words: greater than the kcat of the WT
[1]; uncompetitive substrate inhibition by DMAPP, average of three trials ± one standard deviation, read-out: KiDMAPP
  Ki: 13 ± 1 mM
[2]
  expression level (yield of purified protein) compared to wild type, in words: expressed at higher levels than the wild type protein

B2: T536F: P. alba IspS variant T536F; pDW87, strain DW363, SEQ ID NO: 95 (protein)
chain: B1 chain with P494L, T536F
[2]
  expression level (yield of purified protein) compared to wild type, in words: expressed at higher levels than the wild type protein
[3]
  temperature activity ratio curve (specific activity at a given temperature / at 35° C.), in words: increased activity and thermostability
